Experimental data as given in the supplement of paper PMC10724198.
± gives the standard deviation of the averaged measurements.

What was measured:
Saccharomyces cerevisiae [1] = experiment: protein stability index of tFT-peptide fusion (C-terminal peptide) (PSI (0-1 scale)); higher = more stable (slower turnover)
Experimental: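 MPS profiling in S. cerevisiae of the tFT-X12 degron library: putative degron peptides plus stable controls, 12 aa, fused to the C-terminus of a sfGFP-mCherry timer. Cells are FACS-sorted into 8 mCherry/sfGFP bins and deep-sequenced. PSI runs from 0 (unstable) to 1 (stable). Backgrounds are wild type, das1Δ and doa10Δ at 30 °C, and wild type, das1Δ, cdc34-1 and cdc53-1 at 37 °C; 2-3 technical replicates each.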

Saccharomyces cerevisiae [2] = experiment: as above; conditions: genetic background: wild type; temperature: 30 C
[3] = genetic background: cdc34-1, temperature: 37 C
[4] = genetic background: cdc53-1, temperature: 37 C
[5] = genetic background: das1 deletion, temperature: 30 C
[6] = genetic background: das1 deletion, temperature: 37 C
[7] = genetic background: doa10 deletion, temperature: 30 C
[8] = genetic background: wild type, temperature: 30 C
[9] = genetic background: wild type, temperature: 37 C
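Further: PSI is a weighted mean of sequencing reads over stability bins, variants kept only with over 10 reads, mCherry proximal and sfGFP distal, peptide attached via GGGS linker.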

| Sequence | protein stability index (Saccharomyces cerevisiae [1]; [3]) | protein stability index (Saccharomyces cerevisiae [1]; [4]) | protein stability index (Saccharomyces cerevisiae [1]; [5]) | protein stability index (Saccharomyces cerevisiae [1]; [6]) | protein stability index (Saccharomyces cerevisiae [1]; [7]) | protein stability index (Saccharomyces cerevisiae [1]; [8]) | protein stability index (Saccharomyces cerevisiae [1]; [9]) | protein stability index (Saccharomyces cerevisiae [2]) |
| --- | --- | --- | --- | --- | --- | --- | --- | --- |
| FVRGWGIVFSLA | 0.571 ± 0.031 | 0.599 ± 0.023 | 0.438 ± 0.036 | 0.594 ± 0.015 | 0.225 ± 0.012 | 0.268 ± 0.016 | 0.467 ± 0.011 | 0.41 ± 0.01 |
| FLFCACIRVFSY | 0.0501 ± 0.0013 | 0.17 ± 0.019 | 0.144 ± 0.025 | 0.228 ± 0.0087 | 0.125 ± 0.0033 | 0.133 ± 0.014 | 0.195 ± 0.02 | 0.193 ± 0.0046 |
| VLYWTGTLFVSL | 0.208 ± 0.00082 | 0.355 ± 0.0038 | 0.218 ± 0.017 | 0.426 ± 0.0064 | 0.195 ± 0.019 | 0.233 ± 0.028 | 0.424 ± 0.038 | 0.307 ± 0.035 |
| ICQFFFFALLSF | 0.109 ± 0.04 | 0.0674 ± 0.0054 | 0.164 ± 0.016 | 0.244 ± 0.021 | 0.238 ± 0.011 | 0.128 ± 0.018 | 0.19 ± 0.0063 | 0.178 ± 0.013 |
| PLPSFLYFILLR | 0.22 ± 0.062 | 0.196 ± 0.024 | 0.333 ± 0.03 | 0.396 ± 0.024 | 0.524 ± 0.035 | 0.357 ± 0.012 | 0.359 ± 0.044 | 0.44 ± 0.079 |
| DFFTSFSLFFFL | 0.674 ± 0.028 | 0.7814 ± 0.0048 | 0.635 ± 0.036 | 0.736 ± 0.008 | 0.638 ± 0.051 | 0.636 ± 0.018 | 0.701 ± 0.008 | 0.0727 ± 0.039 |
| GGGWGVFVVLWW | 0.193 ± 0.012 | 0.325 ± 0.0065 | 0.216 ± 0.034 | 0.4026 ± 0.0031 | 0.194 ± 0.0027 | 0.213 ± 0.031 | 0.355 ± 0.038 | 0.318 ± 0.028 |
| SPSTPQALSNFS | 0.679 ± 0.0097 | 0.748 ± 0.015 | 0.657 ± 0.032 | 0.7376 ± 0.0054 | 0.664 ± 0.022 | 0.663 ± 0.025 | 0.715 ± 0.027 | 0.715 ± 0.038 |
| SVVYCRMRVHFV | 0.403 ± 0.024 | 0.487 ± 0.046 | 0.373 ± 0.015 | 0.432 ± 0.014 | 0.263 ± 0.01 | 0.285 ± 0.02 | 0.3786 ± 0.0025 | 0.285 ± 0.0052 |
